The values below come from PMC12697983 (PLOS Pathogens, 2025).

In assay [1] the target is SARS-CoV-2 Omicron BA.5 spike ectodomain trimer, prefusion-stabilised (BA.5-S6P) (SARS-CoV-2 Omicron BA.5, N440K | proline substitutions at 986 and 987 | proline substitutions at 986 and …). Put plainly: cryo-EM structure. As to conditions: both partners purified.
For assay [2], the target named is spike protein on native SARS-CoV-2 virions (Victoria variant) (SARS-CoV-2, Victoria isolate (entry: …, UniProt P0DTC2, strain)). The experiment in a line: cryo-EM imaging of virions. The following applies: one partner purified.

B1: 1C4 Fab (Fab, V domains shown)
VH: QIQLVQSGPELKKPGETVKISCKASGYTFTDYGLNWVKQAPGKGLKWMGWINTYSGEPTYNDEFRGRFAFSLETSTITAYLKINNLKNEDTATYFCARGGNWDWYFDVWGAGTTVTVSS
VL: DIVLTQSPATLSVTPGDNVSLSCRASQIISNNLHWYQQKSHESPRLLIKYASQSISGIPSRFSGSGSGTDFTLSINSVETEDFGMYFCQQSNTWPLTCGSGTKLELN
For orientation: stoichiometry N means a count of units in the complex or per binding partner. In the case of B1, the “stoichiometry N” value in assay [1] was determined as 3 Fabs per spike trimer.

B2: 1C4 (murine monoclonal antibody, IgG format) (antibody, V domains shown)
VH: B1 VH
VL: B1 VL
Turning to B2, the binding result in assay [2] is given as “binds”.
